Laboratory results published in US20090175784A1.

Assays:
[1] = molecular target: human αVβ3/5 integrins on human tumor cells (A375.S2, MDA-MB-231, A2780, HT29, A549) (human) (UniProt P06756); experiment: cell-based or functional assay; parameters: IC50 of doxorubicin, integrin targeted liposome-entrapped dox 90:1, murine melanoma B16-F10 cells (negative control): unit not given beside the values
[2] = molecular target: murine αVβ3/5 integrin (murine melanoma cell line B16F10, negative control) (murine) (UniProt P43406); experiment: cell-based or functional assay; parameters: IC50 of doxorubicin, integrin targeted liposome-entrapped dox 90:1, murine melanoma B16-F10 cells (negative control): unit not given beside the values
Chain of murine αVβ3/5 integrin (murine melanoma cell line B16F10, negative control) (murine) (P43406 31-1044, form in doubt, chain 1 of 3): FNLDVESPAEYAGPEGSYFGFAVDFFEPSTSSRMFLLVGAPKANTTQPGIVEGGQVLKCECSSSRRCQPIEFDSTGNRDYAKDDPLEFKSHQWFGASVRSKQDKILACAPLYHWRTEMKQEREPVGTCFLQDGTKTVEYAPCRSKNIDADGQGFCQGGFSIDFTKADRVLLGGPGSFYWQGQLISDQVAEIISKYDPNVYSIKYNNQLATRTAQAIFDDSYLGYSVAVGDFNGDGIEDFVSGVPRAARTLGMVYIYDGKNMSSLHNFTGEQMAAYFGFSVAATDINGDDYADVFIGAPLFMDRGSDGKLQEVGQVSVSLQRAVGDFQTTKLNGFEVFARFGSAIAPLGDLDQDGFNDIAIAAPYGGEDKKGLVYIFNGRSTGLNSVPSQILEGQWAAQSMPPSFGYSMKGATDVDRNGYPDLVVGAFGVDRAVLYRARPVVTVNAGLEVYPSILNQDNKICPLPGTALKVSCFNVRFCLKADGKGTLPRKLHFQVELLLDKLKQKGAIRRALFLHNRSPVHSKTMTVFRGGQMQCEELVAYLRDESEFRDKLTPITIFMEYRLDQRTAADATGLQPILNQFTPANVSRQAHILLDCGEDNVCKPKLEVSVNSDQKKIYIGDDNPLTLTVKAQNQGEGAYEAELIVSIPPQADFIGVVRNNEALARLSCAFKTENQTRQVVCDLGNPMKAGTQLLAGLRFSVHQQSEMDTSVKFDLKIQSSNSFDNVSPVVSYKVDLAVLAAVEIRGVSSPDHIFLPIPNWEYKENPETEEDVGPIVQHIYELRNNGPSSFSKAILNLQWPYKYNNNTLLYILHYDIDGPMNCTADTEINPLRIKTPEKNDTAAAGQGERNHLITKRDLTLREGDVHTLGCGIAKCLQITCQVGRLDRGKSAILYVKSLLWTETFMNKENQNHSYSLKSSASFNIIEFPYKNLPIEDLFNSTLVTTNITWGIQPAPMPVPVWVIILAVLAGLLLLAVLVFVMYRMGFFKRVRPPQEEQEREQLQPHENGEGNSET
Chain of murine αVβ3/5 integrin (murine melanoma cell line B16F10, negative control) (murine) (O54890 26-787, form in doubt, chain 2 of 3, further chain): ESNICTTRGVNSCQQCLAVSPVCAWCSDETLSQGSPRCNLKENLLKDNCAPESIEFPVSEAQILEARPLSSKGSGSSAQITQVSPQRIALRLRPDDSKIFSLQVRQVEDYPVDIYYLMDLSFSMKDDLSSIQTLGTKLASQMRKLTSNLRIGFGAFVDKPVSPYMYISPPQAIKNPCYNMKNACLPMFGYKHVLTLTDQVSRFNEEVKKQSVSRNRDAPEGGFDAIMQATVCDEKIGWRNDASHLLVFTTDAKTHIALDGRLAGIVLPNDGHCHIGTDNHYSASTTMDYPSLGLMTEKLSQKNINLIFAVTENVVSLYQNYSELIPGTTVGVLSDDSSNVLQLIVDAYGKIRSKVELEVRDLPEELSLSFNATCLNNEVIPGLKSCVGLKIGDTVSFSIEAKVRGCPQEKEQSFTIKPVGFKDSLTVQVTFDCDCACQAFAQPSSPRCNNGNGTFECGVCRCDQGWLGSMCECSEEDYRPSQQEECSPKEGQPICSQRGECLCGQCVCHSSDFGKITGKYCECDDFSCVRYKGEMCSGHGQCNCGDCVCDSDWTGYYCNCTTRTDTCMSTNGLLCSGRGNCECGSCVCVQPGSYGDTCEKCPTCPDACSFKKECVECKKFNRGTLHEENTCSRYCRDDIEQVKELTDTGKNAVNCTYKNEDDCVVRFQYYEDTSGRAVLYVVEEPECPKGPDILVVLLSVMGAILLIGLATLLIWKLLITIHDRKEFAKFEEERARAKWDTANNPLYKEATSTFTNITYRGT
Chain of murine αVβ3/5 integrin (murine melanoma cell line B16F10, negative control) (murine) (O70309 24-798, form in doubt, chain 3 of 3, further chain): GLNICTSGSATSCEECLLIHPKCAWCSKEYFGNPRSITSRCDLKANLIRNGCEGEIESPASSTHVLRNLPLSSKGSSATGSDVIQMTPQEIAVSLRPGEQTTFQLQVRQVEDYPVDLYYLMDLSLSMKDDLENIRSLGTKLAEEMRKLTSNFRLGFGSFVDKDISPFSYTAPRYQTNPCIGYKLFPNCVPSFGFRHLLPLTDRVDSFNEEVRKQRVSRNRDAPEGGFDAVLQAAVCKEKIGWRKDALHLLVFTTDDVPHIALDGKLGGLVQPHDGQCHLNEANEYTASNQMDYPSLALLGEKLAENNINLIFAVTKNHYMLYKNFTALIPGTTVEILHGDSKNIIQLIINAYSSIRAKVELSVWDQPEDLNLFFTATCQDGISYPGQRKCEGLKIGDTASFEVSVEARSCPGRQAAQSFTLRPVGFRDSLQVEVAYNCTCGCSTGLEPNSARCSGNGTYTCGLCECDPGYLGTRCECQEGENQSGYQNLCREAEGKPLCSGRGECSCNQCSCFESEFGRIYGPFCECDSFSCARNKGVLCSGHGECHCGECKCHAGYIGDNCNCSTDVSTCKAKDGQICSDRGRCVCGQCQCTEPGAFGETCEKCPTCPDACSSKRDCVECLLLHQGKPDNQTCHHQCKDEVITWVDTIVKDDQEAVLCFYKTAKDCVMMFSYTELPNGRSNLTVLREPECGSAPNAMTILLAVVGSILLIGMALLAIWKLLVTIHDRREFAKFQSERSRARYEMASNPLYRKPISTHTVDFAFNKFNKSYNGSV

For “CNTO95 Fab′ (from pepsin F(ab′)2, reduced and reoxidized) conjugated to MalPEG-DSPE on the surface of liposomes”, the Increase (ratio of IC50 of liposome-entrapped dox to IC50 of integrin-targeted 90:1), breast cancer MDA-MB-231 cells [1] was 5 fold, the Increase (ratio of IC50 of liposome-entrapped dox to IC50 of integrin-targeted 90:1), colon cancer HT29 cells [1] was 1.1 fold and the Increase (ratio of IC50 of liposome-entrapped dox to IC50 of integrin-targeted 90:1), lung cancer A549 cells [1] was 1 fold. The Increase (ratio of IC50 of liposome-entrapped dox to IC50 of integrin-targeted 90:1), melanoma A375.S2 cells [1] was 29 fold, the Increase (ratio of IC50 of liposome-entrapped dox to IC50 of integrin-targeted 90:1), ovarian cancer A2780 cells [1] was 29 fold and the IC50 of doxorubicin, integrin targeted liposome-entrapped dox 90:1, murine melanoma B16-F10 cells (negative control) [2] was greater than 200. For the same substance, the Increase (ratio of IC50 of liposome-entrapped dox to IC50 of integrin-targeted 90:1), murine melanoma B16-F10 cells (negative control) [2] was 1 fold.
